Experimental data taken from publication PMC5711931.

Tests used:
[1] = target: F-actin of the thin filaments in ghost muscle fibres (rabbit psoas) (rabbit (endogenous in m. psoas fibres)) (UniProt P68135); experiment: incorporation into ghost muscle fibres, washing, SDS-PAGE; ghost fibres with thin filaments reconstructed with Tpm and TN, decorated with S1; absence of nucleotide
[2] = target: F-actin of the thin filaments in ghost muscle fibres (rabbit psoas) (rabbit (endogenous in m. psoas fibres)) (UniProt P68135); experiment: incorporation into ghost muscle fibres, washing, SDS-PAGE; ghost fibres with thin filaments reconstructed with Tpm and TN, decorated with S1; presence of ATP (5 mM ATP, 18 mM MgCl2, creatine phosphate and creatine kinase)
[3] = target: F-actin of the thin filaments in ghost muscle fibres (rabbit psoas) (rabbit (endogenous in m. psoas fibres)) (UniProt P68135); experiment: incorporation into ghost muscle fibres, washing, SDS-PAGE; ghost fibres with thin filaments reconstructed with Tpm and TN, decorated with S1; presence of AMPPNP (16 mM AMPPNP, 8 mM MgCl2)
[4] = target: F-actin of the thin filaments in ghost muscle fibres (rabbit psoas) (rabbit (endogenous in m. psoas fibres)) (UniProt P68135); experiment: incorporation into ghost muscle fibres, washing, SDS-PAGE; ghost fibres with thin filaments reconstructed with Tpm and TN, decorated with S1; presence of ADP (2.5 mM ADP, 3 mM MgCl2)
[5] = target: F-actin of the thin filaments in ghost muscle fibres (rabbit psoas) (rabbit (endogenous in m. psoas fibres)) (UniProt P68135)
[6] = target: F-actin of the thin filaments in ghost muscle fibres (rabbit psoas) (rabbit (endogenous in m. psoas fibres)) (UniProt P68135); experiment: fluorescence intensity of the labelled protein in ghost muscle fibres (polarized fluorimeter); AF-Tpm-TN incorporated into the actin filaments of ghost fibres; Isum of the four polarized intensity components, n = 25; excitation 436 ± 5 nm, emission 500-600 nm
[7] = target: F-actin of the thin filaments in ghost muscle fibres (rabbit psoas) (rabbit (endogenous in m. psoas fibres)) (UniProt P68135); experiment: incorporation into ghost muscle fibres, washing, SDS-PAGE with densitometry; single rabbit psoas ghost fibres incubated with Tpm and TN in 50 mM KCl, 3 mM MgCl2, 1 mM DTT, 6.7 mM K, Na phosphate buffer, pH 7.0; unbound Tpm and TN washed out for 15 min; 8-10 fibres per gel lane, 12% SDS-PAGE, ImageJ

Chain of myosin subfragment-1 from rabbit fast skeletal muscle myosin (domain or fragment) (Q28641 whole entry, the tested form may be a part): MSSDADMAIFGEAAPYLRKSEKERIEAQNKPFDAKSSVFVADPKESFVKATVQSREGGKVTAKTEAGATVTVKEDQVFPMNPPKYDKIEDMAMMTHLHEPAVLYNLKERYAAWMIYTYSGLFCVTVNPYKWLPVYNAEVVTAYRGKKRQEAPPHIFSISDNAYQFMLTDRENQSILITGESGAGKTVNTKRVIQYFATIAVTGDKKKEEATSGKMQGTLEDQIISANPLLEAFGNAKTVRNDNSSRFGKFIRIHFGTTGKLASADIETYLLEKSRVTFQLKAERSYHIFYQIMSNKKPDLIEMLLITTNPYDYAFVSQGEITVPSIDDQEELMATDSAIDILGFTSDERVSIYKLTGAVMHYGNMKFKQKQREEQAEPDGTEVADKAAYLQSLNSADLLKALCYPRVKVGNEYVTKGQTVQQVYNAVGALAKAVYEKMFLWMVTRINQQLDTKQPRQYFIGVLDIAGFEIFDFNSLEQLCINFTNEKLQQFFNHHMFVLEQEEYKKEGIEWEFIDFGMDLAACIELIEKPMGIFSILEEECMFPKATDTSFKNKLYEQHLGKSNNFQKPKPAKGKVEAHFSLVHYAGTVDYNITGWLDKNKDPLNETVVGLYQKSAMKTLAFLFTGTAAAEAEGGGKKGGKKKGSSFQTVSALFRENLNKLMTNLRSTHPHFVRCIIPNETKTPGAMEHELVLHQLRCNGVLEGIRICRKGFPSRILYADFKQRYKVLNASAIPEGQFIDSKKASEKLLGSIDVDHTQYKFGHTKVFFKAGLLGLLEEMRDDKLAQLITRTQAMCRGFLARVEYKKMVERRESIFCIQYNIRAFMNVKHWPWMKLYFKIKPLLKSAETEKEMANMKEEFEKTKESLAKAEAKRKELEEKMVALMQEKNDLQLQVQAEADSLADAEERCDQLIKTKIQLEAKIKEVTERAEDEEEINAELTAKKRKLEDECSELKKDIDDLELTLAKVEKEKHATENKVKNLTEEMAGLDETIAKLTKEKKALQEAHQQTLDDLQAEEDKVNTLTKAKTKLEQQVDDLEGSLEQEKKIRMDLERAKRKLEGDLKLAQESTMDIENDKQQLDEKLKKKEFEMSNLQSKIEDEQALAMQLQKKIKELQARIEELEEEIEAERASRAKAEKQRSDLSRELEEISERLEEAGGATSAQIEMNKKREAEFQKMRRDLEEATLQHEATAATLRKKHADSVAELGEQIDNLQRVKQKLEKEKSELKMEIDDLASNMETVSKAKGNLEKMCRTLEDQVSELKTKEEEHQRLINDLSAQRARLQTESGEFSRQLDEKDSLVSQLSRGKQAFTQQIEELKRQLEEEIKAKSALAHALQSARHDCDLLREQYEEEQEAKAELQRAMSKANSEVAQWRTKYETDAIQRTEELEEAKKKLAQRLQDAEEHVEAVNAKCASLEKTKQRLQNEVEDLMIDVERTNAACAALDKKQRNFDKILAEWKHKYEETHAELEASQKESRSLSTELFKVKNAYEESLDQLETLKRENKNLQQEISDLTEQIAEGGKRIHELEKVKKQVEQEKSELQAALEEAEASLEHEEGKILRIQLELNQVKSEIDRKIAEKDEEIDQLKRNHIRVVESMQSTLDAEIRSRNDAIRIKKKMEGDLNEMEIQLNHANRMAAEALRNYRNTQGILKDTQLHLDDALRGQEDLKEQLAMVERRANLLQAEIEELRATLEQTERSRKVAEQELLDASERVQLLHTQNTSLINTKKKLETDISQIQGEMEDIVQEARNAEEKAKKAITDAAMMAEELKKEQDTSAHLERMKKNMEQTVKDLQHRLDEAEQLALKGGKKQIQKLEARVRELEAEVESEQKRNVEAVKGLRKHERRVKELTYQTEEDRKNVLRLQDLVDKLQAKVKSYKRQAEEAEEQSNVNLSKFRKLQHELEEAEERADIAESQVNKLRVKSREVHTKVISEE

“myosin subfragment-1 from rabbit fast skeletal muscle myosin (domain or fragment)” was tested, and the molar ratio of S1 to actin (1:x, value is x) (mol actin per mol S1) [1] was 5, the molar ratio of S1 to actin (1:x, value is x) (mol actin per mol S1) [2] was 14 and the molar ratio of S1 to actin (1:x, value is x) (mol actin per mol S1) [3] was 8. For the same substance, the molar ratio of S1 to actin (1:x, value is x) (mol actin per mol S1) [4] was 5 and the ΦE of the polarized fluorescence of AEDANS-S1 in ghost fibres containing ΔE139Tpm against fibres containing WTTpm; TN, high Ca2+, no nucleotide [5] was 0.4 °.
In the case of “recombinant tropomyosin Tpm2.2 with the E139 deletion labelled with 5-IAF (natural protein)”, the fluorescence intensity Isum of the bound labelled Tpm [6] is reported as 266.
For “recombinant tropomyosin Tpm2.2 with the E139 deletion, ββ-homodimer (natural protein)”, the amount bound, percent of the amount of WTTpm [7] was 85%.
“recombinant wild-type tropomyosin Tpm2.2 labelled with 5-IAF (natural protein)” showed a fluorescence intensity Isum of the bound labelled Tpm [6] of 236.
